In IntAct's records for PubMed 23219551:

B1: DNA ligase 4 (Homo sapiens), P49917 (parent)
chain: MAASQTSQTVASHVPFADLCSTLERIQKSKGRAEKIRHFREFLDSWRKFHDALHKNHKDVTDSFYPAMRLILPQLERERMAYGIKETMLAKLYIELLNLPRDGKDALKLLNYRTPTGTHGDAGDFAMIAYFVLKPRCLQKGSLTIQQVNDLLDSIASNNSAKRKDLIKKSLLQLITQSSALEQKWLIRMIIKDLKLGVSQQTIFSVFHNDAAELHNVTTDLEKVCRQLHDPSVGLSDISITLFSAFKPMLAAIADIEHIEKDMKHQSFYIETKLDGERMQMHKDGDVYKYFSRNGYNYTDQFGASPTEGSLTPFIHNAFKADIQICILDGEMMAYNPNTQTFMQKGTKFDIKRMVEDSDLQTCYCVFDVLMVNNKKLGHETLRKRYEILSSIFTPIPGRIEIVQKTQAHTKNEVIDALNEAIDKREEGIMVKQPLSIYKPDKRGEGWLKIKPEYVSGLMDELDILIVGGYWGKGSRGGMMSHFLCAVAEKPPPGEKPSVFHTLSRVGSGCTMKELYDLGLKLAKYWKPFHRKAPPSSILCGTEKPEVYIEPCNSVIVQIKAAEIVPSDMYKTGCTLRFPRIEKIRDDKEWHECMTLDDLEQLRGKASGKLASKHLYIGGDDEPQEKKRKAAPKMKKVIGIIEHLKAPNLTNVNKISNIFEDVEFCVMSGTDSQPKPDLENRIAEFGGYIVQNPGPDTYCVIAGSENIRVKNIILSNKHDVVKPAWLLECFKTKSFVPWQPRFMIHMCPSTKEHFAREYDCYGDSYFIDTDLNQLKEVFSGIKNSNEQTPEEMASLIADLEYRYSWDCSPLSMFRRHTVYLDSYAVINDLSTKNEGTRLAIKALELRFHGAKVVSCLAEGVSHVIIGEDHSRVADFKAFRRTFKRKFKILKESWVTDSIDKCELQEENQYLI

Variants of: B1
Settings: with dcr1c_human DCLRE1C

Row | effect of a mutation on the interaction | Variant
1 | disrupting interaction strength | F49A
2 | disrupting interaction strength | F42A;F49A

Further lines, the variant ahead of its results:

Row | Variant | effect of a mutation on the interaction
3 | F42A | disrupting interaction strength
4 | V14A | decreasing interaction strength
5 | D18H | decreasing interaction strength
